This is an account of results in patent US20250333749A1, “INDUCIBLE PROMOTER, VECTOR AND HOST CELL BASED THEREON” (JOINT STOCK COMPANY «BIOCAD», priority 2021, published 2025).

Test [1] deals with HEK293_STAT3-STAT5-AP1_FLuc_AXL cells (AXL receptor). Briefly: GAS6-dependent AXL-mediated activation of reporter cell line HEK293_STAT3-STAT5-AP1_FLuc_AXL. It counts as cell-based. As to conditions: GAS6 2 μg/ml. Here is the method:
(§1) To generate the reporter cell line HEK293_STAT3-STAT5-AP1_FLuc_AXL, we used three clones of the universal reporter cell line HEK293_STAT3-STAT5-AP1_FLuc: cl. D1, cl. B3 and cl. C4 #2; on the basis of them, we produced, respectively, 3 pools of cells with an embedded constitutionally expressed AXL receptor gene. AXL-mediated activation of these pools was tested. The test was performed in a 96-well culture plate designed for luminescence assays. […] The final volume of the cell suspension in a well was 100 μl, all components of the suspension were prepared in DMEM medium free of fetal bovine serum. After adding all the components, the plate was incubated for 16 hours at 37° C., 5% CO2, and then, using a luminescence assay kit, we measured the luminescence intensity in the wells. The measurement was carried out using a plate reader. The activation level was calculated as the ratio of luminescence level for a given pool in the presence of GAS6 to luminescence level in the absence of GAS6.
B3 and cl. […] D1. […]
The test was performed similarly to the procedure described in Example 7, we used the cells of the reporter line HEK293_STAT3-STAT5-AP1_FLuc_AXL (cl.13) and GAS6 at a concentration of 2 μg/ml (FIG. 11) for activation; following adding all the components, the plate was incubated for the time shown in the graph, the luminescence intensity in the wells was then determined. […]

Test [2] relates to HEK293_AXL_STAT3-STAT5-AP1 cells (AXL overexpresser). Description: GAS6 activation of reporter cell line HEK293_AXL_STAT3-STAT5-AP1 as a function of cell count. It counts as cell-based. As to conditions: GAS6 2 μg/ml; 96-well plate; FIG. 17. Here is the method:
as §1
To create the reporter cell line HEK293_AXL_STAT3-STAT5-AP1_FLuc, we used the cell line HEK293_AXL, an AXL overexpresser, on the basis of which we produced a pool of cells comprising a gene encoding firefly luciferase under the control of STAT3-STAT5-AP1 promoter. […] The test was performed in a similar fashion to the procedure described in Example 7, at a concentration of GAS6 of 2 μg/ml. […]

B1: GAS6: the AXL ligand GAS6; activator of AXL-dependent cell signaling (protein)
chain: AFQVFEEAKQGHLERECVEELCSREEAREVFENDPETDYFYPRYLDCINKYGSPYTKNSGFATCVQNLPDQCTPNPCDRKGTQACQDLMGNFFCLCKAGWGGRLCDKDVNECSQENGGCLQICHNKPGSFHCSCHSGFELSSDGRTCQDIDECADSEACGEARCKNLPGSYSCLCDEGFAYSSQEKACRDVDECLQGRCEQVCVNSPGSYTCHCDGRGGLKLSQDMDTCEDILPCVPFSVAKSVKSLYLGRMFSGTPVIRLRFKRLQPTRLVAEFDFRTFDPEGILLFAGGHQDSTWIVLALRAGRLELQLRYNGVGRVTSSGPVINHGMWQTISVEELARNLVIKVNRDAVMKIAVAGDLFQPERGLYHLNLTVGGIPFHEKDLVQPINPRLDGCMRSWNWLNGEDTTIQETVKVNTRMQCFSVTERGSFYPGSGFAFYSLDYMRTPLDVGTESTWEVEVVAHIRPAADTGVLFALWAPDLRAVPLSVALVDYHSTKKLKKQLVVLAVEHTALALMEIKVCDGQEHVVTVSLRDGEATLEVDGTRGQSEVSAAQLQERLAVLERHLRSPVLTFAGGLPDVPVTSAPVTAFYRGCMTLEVNRRLLDLDEAAYKHSDITAHSCPPVEPAAA
As to B1, the “Level of GAS6-dependent activation (activation relative to non-activated cells)” value in test [1] (well H11 = initial pool (based on cl. D1)) is reported as 3.61. Further, the “incubation time with the highest level of activation” value in test [1] (cl.13, FIG. 11) was found to be 24 h. Also, the “cell count per well with the highest level of activation” value in test [2] is on record as 25,000-50,000 cells.
